Results: paper PMC6018003, “Quantifying the Interaction between Copper-Zinc Superoxide Dismutase (Sod1) and its Copper Chaperone (Ccs1)” (Journal of proteomics & bioinformatics, 2018)

T1: H46R/H48Q/C146S Sod1 labeled with Alexa-546 at C57 (yeast, Alexa-546 C5-maleimide on C57)
T1 construct: two residue (Gly-His) extension left on the N-terminus after TEV cleavage; The vector with His tag and TEV site is stated for Ccs1; the purification with tag removal is told of both proteins; also called immature Sod1; E, E-Sod1^SH; source: E. coli BL21 (DE3) pLysS, purified (HisTrap HP Ni2+ column, TEV cleavage; Superdex 200 after labeling); not shown: His8, N-terminal, cleaved
T1 sequence (P00445 2-154 with H46R H48Q C146S, looked up): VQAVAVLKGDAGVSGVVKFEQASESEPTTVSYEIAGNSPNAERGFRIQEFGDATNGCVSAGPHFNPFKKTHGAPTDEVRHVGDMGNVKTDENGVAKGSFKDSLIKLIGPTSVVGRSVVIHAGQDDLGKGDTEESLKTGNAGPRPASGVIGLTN


Molecular target: T1, H46R/H48Q/C146S Sod1 labeled with …
Experiment: other fluorescence titration; microplate, quenching of Alexa-546-labeled Sod1 on titration with Ccs1; Sod1 metal deficient and disulfide reduced (E, E-Sod1^SH); 20 mM Tris pH 7.5, 150 mM NaCl, 1 mM TCEP, 0.01% octyl glucoside and CHAPS
Details: both partners purified

| Binder | Kd [nM] |
| --- | --- |
| Ccs1 lacking D3 (domain or fragment) MTTNDTYEATYAIPMHCENCVNDIKACLKNVPGINSLNFDIEQQIMSVESSVAPSTIINTLRNCGKDAIIRGAGKPNSSAVAILETFQKYTIDQKKDTAVRGLARIVQVGENKTLFDITVNGVPEAGNYHASIHEKGDVSKGVESTGKVWHKFDEPIECFNESDLGKNLYSGKTFLSAPLPTWQLIGRSFVISKSLNHPENEPSSVKDYSFLGVIARSAGVW | 552 ± 105 |
| Ccs1 lacking D1 (domain or fragment) IRGAGKPNSSAVAILETFQKYTIDQKKDTAVRGLARIVQVGENKTLFDITVNGVPEAGNYHASIHEKGDVSKGVESTGKVWHKFDEPIECFNESDLGKNLYSGKTFLSAPLPTWQLIGRSFVISKSLNHPENEPSSVKDYSFLGVIARSAGVWENNKQVCACTGKTVWEERKDALANNIK | 217 ± 38 |
